Numbering of substitutions follows the chain as printed.
B1: SbtR, transcriptional regulator encoded by the Thermus thermophilus HB8 TTHA0167 gene (natural protein, UniProt Q5SLX6 1-189, looked up)
chain: MAAMITPPGAGVKDKKRAILEATLAVLRERGLSGLKMEEVARRAEVGKGTIYLYFRDKRDLLKALVEERTWAFYREVEEVVRRKAPFFVRLEEVLRRRLAWVQEWRGLWAAVAREAMDDPTPWLKGLHEHYLRLLEELLRSGQSEGAVRTGLSPRATAAVIAAMGCTPSLEVEAYLEHLMEVLRKGVEP
modifications: intermolecular disulfide bond (disulfide-linked dimeric species)
notes: SbtR, TetR/AcrR family transcriptional regulator, Thermus thermophilus HB8, TTHA0167 (sbtR) gene in pET-11a; 189 amino acid residues, 21,539 Da; called wild-type SbtR; It says the plasmid holds the TTHA0167 gene and reckons the stock concentration from the 189-residue protein; also called SbtR2; SbtR dimer; source: E. coli BL21(DE3) with pET-sbtR, IPTG-induced; soluble extract heated at 70°C for …
B2: m1 (dsDNA)
DNA 1: CTAGGAATTCGTGCAGAGGTGAATAGACTGGCCAGTCATTACCATCCCTCCAGAAGCTTGGAC
DNA 2: GTCCAAGCTTCTGGAGGGATGGTAATGACTGGCCAGTCTATTCACCTCTGCACGAATTCCTAG
B3: m2 (dsDNA)
DNA 1: B2 DNA 1 with A25T, G26C
DNA 2: B2 DNA 2 with C38G, T39A
B4: m3 (dsDNA)
DNA 1: B2 DNA 1 with A25T, A27T
DNA 2: B2 DNA 2 with T37A, T39A
B5: m4 (dsDNA)
DNA 1: B2 DNA 1 with A25T, C28G
DNA 2: B2 DNA 2 with G36C, T39A
B6: m5 (dsDNA)
DNA 1: B2 DNA 1 with A25T, T29A
DNA 2: B2 DNA 2 with A35T, T39A
B7: m6 (dsDNA)
DNA 1: B2 DNA 1 with A25T, G30C
DNA 2: B2 DNA 2 with C34G, T39A
B8: m7 (dsDNA)
DNA 1: B2 DNA 1 with A25T, G31C
DNA 2: B2 DNA 2 with C33G, T39A
B9: SbtR mini probe 22-bp (dsDNA)
DNA 1: GCCCTGACTGGCCAGTCACCCG
DNA 2: CGGGTGACTGGCCAGTCAGGGC

Molecular target: the molecule itself
Assay: SDS-PAGE with and without reductant; Coomassie-stained 4-20% SDS-PAGE gradient gel; purified SbtR loaded under standard reducing conditions or under oxidizing conditions (Laemmli loading buffer lacking reductant)
Conditions: not given
B1 was tested, and the “stoichiometry N” value was 2.

The binders below were run against T1, SbtR (Thermus thermophilus HB8, UniProt Q5SLX6 1-189) (assay: BLI; EMSA/REPA: 50 mM K acetate, 20 mM Tris acetate, 10 mM Mg acetate, BSA (CutSmart), pH 7.9, binding 55 C 20 min (REPA cleavage 37 C); BLI: 20 mM Tris-Cl pH 7.7, 100 mM NaCl, 1 mM EDTA, 0.05% Tween 20, 30 C (hydration step; binding temperature not separately stated); concentrations as SbtR dimer). Conditions: protein: recombinant; tags: none stated (pET-11a, wild-type); chain copies: 2; label: 5' biotin-dT on strand 2 (extra 5' T in primer).
T1 sequence: B1 chain
B2 was tested, and the Kd was 0.551 nM.
With B3 the Kd was 7.11 nM.
For B4, the Kd was 2.18 nM.
B5 showed a Kd of 1.24 nM.
B6 was tested, and the Kd was 15.5 nM.
Work on B7 yielded a Kd of 0.159 nM.
Binder B8 has a Kd of 0.839 nM.

Each binder was assayed against T1, SbtR (assay: EMSA; S1 complex, apparent; EMSA/REPA: 50 mM K acetate, 20 mM Tris acetate, 10 mM Mg acetate, BSA (CutSmart), pH 7.9, binding 55 C 20 min (REPA cleavage 37 C); BLI: 20 mM Tris-Cl pH 7.7, 100 mM NaCl, 1 mM EDTA, 0.05% Tween 20, 30 C (hydration step; binding temperature not separately stated); concentrations as SbtR dimer). Conditions: protein: recombinant; tags: none stated (pET-11a, wild-type); chain copies: 2; label: 5' IRDye700 on strand 1; blunt.
With B9 the Kd was 5 nM.
